# The RNAGym collection of RNA variant scans (doi:10.1073/pnas.2313332121)
# Fewer inactive variants are shown than the library holds.
# B1: TPR 5TU (parent)
# chain: GGAUCUUCUCGAUCUAACAAAAAAGACAAAUCUGCCACAAAGCUUGAGAGCAUCUUCGGAUGCAGAGGCGGCAGCCUUCGGUGGCGCGAUAGCGCCAACGUUCUCAACUAUGACACGCAAAACGCGUGCUCCGUUGAAUGGAGUUUAUCAUG
# Variants of: B1
# Assay: polymerase ribozyme fitness, log enrichment relative to wild type (log ratio); higher = more active; in vitro selection for triplet polymerase activity
# Procedure, shortened: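 One round of in vitro selection, in triplicate, was applied to PCR-built, transcribed mutant libraries of each subunit of a heterodimeric triplet polymerase ribozyme. The steps were annealing with a biotinylated primer, partner subunit and triplets, incubation frozen at −7 °C, gel excision of extended constructs, streptavidin-bead capture and RT-PCR. Fitness is the logarithm, base 2, of genotype enrichment over wild-type enrichment from inverse-variance-weighted replicate averages of Illumina-sequenced inputs and outputs, keeping genotypes with ≥10 input reads and ≥1 read per output.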
row,Variant,polymerase ribozyme fitness (log ratio)
1,G92U C105G C125U A137G,-3.35
2,C93U U109G U144G,-1.39
3,G86U C96U,-2.68
4,C93A G141U,-0.625
5,G88A C93G C108U A120U A137U,≤ -4.2
6,A91G U144C,-2.47
7,G88A U109C A142C,-4.19
8,A89G A142C,-1.45
9,C85U A147U,-0.285
10,G88A G126A,-3.7
11,C85U U135A,-0.52
12,C85U U135C,-2.09
13,A91G A115C,-3.57
14,G88U C108A G128C C132U A137U,≤ -4.2
15,A89G G126C,0.0965
16,C87G A91C A122G,≤ -4.2
17,A89G C95A A137C,-4.09
18,C85U C95A G117C,-0.698
19,C93A A121G U144A,-1.18
20,G88A C105U,-3.72
21,C93U A121U U127C,-2.87

row,Variant,polymerase ribozyme fitness (log ratio)
1,G86A U148A,-3.4
2,C87U C93G,-4.18
3,C87U C93A,-3.93
4,C87U U102G,-3.08
5,G86U A121U,-0.702
6,U90A C131A G143A,-4.19
7,G86U A89G G92A,≤ -4.2
8,C93U U148G,-3.7
9,C87A U90G C99G,≤ -4.2
10,C87G C93U G124C,≤ -4.2
11,G88U C132U,-3.92
12,G86C A137G,-3.37
13,C87A C95U A107U,≤ -4.2
14,C87A C99U,≤ -4.2
15,C87A C93G,≤ -4.2
16,A91C U109C,≤ -4.2
17,C87G C132U,≤ -4.2
18,C87A A107G A110G A120G U139C G140A A147G,≤ -4.2
19,G94A C118G,-1.61
20,G94A C118A,-0.879
21,C93A U109G C123G,-3.37

row,Variant,polymerase ribozyme fitness (log ratio)
1,C93A A115G C116U,-2.39
2,C87U,-0.596
3,C87A,≤ -4.2
4,G86A A89U U144C,-1.64
5,G88C C105A G117C G141A A147U,≤ -4.2
6,A91C A98U C116A A121G U130G,≤ -4.2
7,G94A A137U,-3.87
8,C85U A122U,-0.795
9,U90A C105G,≤ -4.2
10,G86A C87U,-3.65
11,C87G C93G,-3.76
12,A89G A120C,-1.41
13,C93G A113U,-4.11
14,C87U G88C,-3.83
15,G88A A150C,≤ -4.2
16,C87A G128A U146C U148A,≤ -4.2
17,A91G G141U,-1.92
18,A91G G141C,-2.86
19,G88A C118U G141U U144A,≤ -4.2
20,C85U G126C,-1.23
21,C85U G126U,-1.6

row,Variant,polymerase ribozyme fitness (log ratio)
1,C85U G126A,0.641
2,C93A A98U,-0.828
3,G92A A98U U111A C123U U144A A150C,≤ -4.2
4,A91G C125A,-3.21
5,C93A U151A,≤ -4.2
6,C93U G140A,-3.82
7,C93U G140C,-3.57
8,C93U C116G,-2.2
9,G92A C95A,-3.27
10,G86A G94A A110G,≤ -4.2
11,C87U A113U A122G G136U U144C,-3.67
12,G92A C103A,-3.9
13,G92A C103G,-4
14,C93U G124A C131U U139G,0.429
15,G88U G92C G117U,-3.57
16,G94A C125U,-1.67
17,A91U G94U C96G A115G G141C,≤ -4.2
18,C87G A115U C116G,-3.97
19,C93U G124A,-1.3
20,C93U G124U,-2.66
